Experimental data from paper PMC8429893, “CTP regulates membrane-binding activity of the nucleoid occlusion protein Noc” (Molecular Cell, 2021).
Numbering of substitutions follows the chain as printed. Names may count otherwise.

How the values were obtained:
[1] = target: Geobacillus thermoleovorans NocNΔ26ΔCTD (Geobacillus thermoleovorans); experiment: crystal structure; G. thermoleovorans NocNΔ26ΔCTD, premixed with 1 mM CTPγS and 1 mM MgCl2 (no nucleotide in the density), 2.95 Å, space group C222(1), one copy per asymmetric unit; dimer with a symmetry mate
[2] = target: T1, Noc (N121S) (Bacillus subtilis, UniProt P37524, N121S); experiment: ITC; format: binding
T1 construct: B. subtilis Noc (N121S), His6-tagged

[3] = target: T2, Noc (nucleoid occlusion protein) (Bacillus subtilis, UniProt P37524); experiment: ITC; format: binding
T2 construct: B. subtilis Noc (WT), His6-tagged

[4] = target: T3, Noc (R89A) (Bacillus subtilis, UniProt P37524 1-283, R89A); experiment: BLI; 1 mM CTP; nucleates, does not spread; BLI: 100 mM Tris-HCl pH 8.0, 150 mM NaCl, 1 mM MgCl2, 0.005% Tween 20, 22 C; 1 uM Noc dimer +/- 1 mM NTP; conditions: protein: recombinant; tags: C-terminal His6; chain copies: 2; label: biotin on both ends; blunt
T3 sequence: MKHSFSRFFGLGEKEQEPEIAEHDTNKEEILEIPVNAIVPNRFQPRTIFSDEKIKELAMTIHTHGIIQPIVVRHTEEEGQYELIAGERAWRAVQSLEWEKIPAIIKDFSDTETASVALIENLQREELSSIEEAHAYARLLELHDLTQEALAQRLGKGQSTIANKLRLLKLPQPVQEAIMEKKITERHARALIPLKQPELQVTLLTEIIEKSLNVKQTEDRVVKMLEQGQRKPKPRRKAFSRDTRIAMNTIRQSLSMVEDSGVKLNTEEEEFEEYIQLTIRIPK

[5] = target: T4, Noc (N121S) (Bacillus subtilis, UniProt P37524 1-283, N121S); experiment: as above; conditions: protein: recombinant; tags: C-terminal His6; chain copies: 2; label: biotin on both ends; blunt
T4 sequence: T3 sequence with A89R, N121S

[6] = target: T5, Noc (Bacillus subtilis, UniProt P37524 1-283); experiment: BLI; 1 mM CTP; BLI: 100 mM Tris-HCl pH 8.0, 150 mM NaCl, 1 mM MgCl2, 0.005% Tween 20, 22 C; 1 uM Noc dimer +/- 1 mM NTP; conditions: protein: recombinant; tags: C-terminal His6; chain copies: 2; label: biotin on both ends; blunt
T5 sequence: T3 sequence with A89R

[7] = target: T5, Noc; experiment: BLI; 1 uM Noc; 1 mM CTP; BLI: 100 mM Tris-HCl pH 8.0, 150 mM NaCl, 1 mM MgCl2, 0.005% Tween 20, 22 C; 1 uM Noc dimer +/- 1 mM NTP; conditions: protein: recombinant; tags: C-terminal His6; chain copies: 2; label: biotin on both ends; blunt
[8] = target: T5, Noc; experiment: BLI; 1 mM CTP; no increase beyond nucleation; BLI: 100 mM Tris-HCl pH 8.0, 150 mM NaCl, 1 mM MgCl2, 0.005% Tween 20, 22 C; 1 uM Noc dimer +/- 1 mM NTP; conditions: protein: recombinant; tags: C-terminal His6; chain copies: 2; label: biotin at M13F end; 5' overhang 4 nt (GATC) at BamHI end
[9] = target: the molecule itself; experiment: cross-linking; BMOE (1 mM) cysteine crosslinking of 10 uM Noc variant ± 1 mM NTP ± 1 uM 22 bp NBS/parS DNA; 10 mM Tris-HCl pH 7.4, 200 mM NaCl, 1 mM MgCl2; 10 min at 22°C; SDS-PAGE, Coomassie, band quantification; reads self-engagement of the N-terminal domain

T1 sequence (P37524 whole entry N121S): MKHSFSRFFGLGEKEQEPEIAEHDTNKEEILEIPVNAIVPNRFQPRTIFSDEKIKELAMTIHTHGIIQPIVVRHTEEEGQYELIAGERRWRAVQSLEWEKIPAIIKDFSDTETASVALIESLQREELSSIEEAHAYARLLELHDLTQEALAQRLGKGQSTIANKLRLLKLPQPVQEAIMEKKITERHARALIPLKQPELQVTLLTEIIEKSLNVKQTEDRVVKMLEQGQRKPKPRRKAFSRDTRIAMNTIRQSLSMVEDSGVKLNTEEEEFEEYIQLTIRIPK
T2 sequence (P37524 whole entry): as the sequence (P37524 whole entry N121S) above, with S121N counted along it

Geobacillus thermoleovorans NocNΔ26ΔCTD (domain or fragment)
stoichiometry N [1]: 2

Nc1ccn([C@@H]2O[C@H](COP(=O)(O)OP(=O)(O)OP(O)(O)=S)[C@@H](O)[C@H]2O)c(=O)n1 [CTPɣS]
Kd [2]: 232 ± 66 µM | Kd [3]: 68 ± 23 µM

B1: 170 bp NBS DNA, closed (dsDNA)
DNA 1: CGCCAGGGTTTTCCCAGTCACGACGTTGTAAAACGACGGCCAGAATTCGCAACGTGTATTTCCCGGGAAATAGCCTTGAACTGATAACGACTCTATCATTGATAGAGTGTTCTCTCCACGGGATCCCCAGGCATGCAAGCTTGGCGTAATCATGGTCATAGCTGTTTCCT
DNA 2: AGGAAACAGCTATGACCATGATTACGCCAAGCTTGCATGCCTGGGGATCCCGTGGAGAGAACACTCTATCAATGATAGAGTCGTTATCAGTTCAAGGCTATTTCCCGGGAAATACACGTTGCGAATTCTGGCCGTCGTTTTACAACGTCGTGACTGGGAAAACCCTGGCG
binding result [4]: binds | binding result [5]: binds | binding signal [6]: ~6 fold BLI response vs no CTP

B2: 170 bp parS DNA, closed (dsDNA)
DNA 1: B1 DNA 1 with A58G, C63A, G66T, T71C
DNA 2: B1 DNA 2 with A100G, C105A, G108T, T113C
binding result [7]: no binding

B3: 170 bp NBS DNA, BamHI-cut (open) (dsDNA)
DNA 1: CGCCAGGGTTTTCCCAGTCACGACGTTGTAAAACGACGGCCAGAATTCGCAACGTGTATTTCCCGGGAAATAGCCTTGAACTGATAACGACTCTATCATTGATAGAGTGTTCTCTCCACGG
DNA 2: GATCCCGTGGAGAGAACACTCTATCAATGATAGAGTCGTTATCAGTTCAAGGCTATTTCCCGGGAAATACACGTTGCGAATTCTGGCCGTCGTTTTACAACGTCGTGACTGGGAAAACCCTGGCG
binding result [8]: binds

B4: B. subtilis NocNΔ10 (E29C) (domain or fragment, Bacillus subtilis, UniProt P37524 11-283, looked up)
chain: LGEKEQEPEIAEHDTNKECILEIPVNAIVPNRFQPRTIFSDEKIKELAMTIHTHGIIQPIVVRHTEEEGQYELIAGERRWRAVQSLEWEKIPAIIKDFSDTETASVALIENLQREELSSIEEAHAYARLLELHDLTQEALAQRLGKGQSTIANKLRLLKLPQPVQEAIMEKKITERHARALIPLKQPELQVTLLTEIIEKSLNVKQTEDRVVKMLEQGQRKPKPRRKAFSRDTRIAMNTIRQSLSMVEDSGVKLNTEEEEFEEYIQLTIRIPK
binding result [9]: binds
